Here are results for six molecules from patent publication US12377130B2, “Pharmaceutical composition comprising CCN5 as active ingredient, for preventing or treating retinal diseases” (OLIVES BIOTHERAPEUTICS INC., priority 2018, dated 2025).

Holding throughout (format): cell-based, human
Series [1] has as its system ARPE-19 cells. Nature of the series: Anti-VEGF drug-induced fibrotic deformation of ARPE-19 cells, simultaneous treatment with CCN5 protein. The following applies: for expression of CCN2 on treatment with anti-VEGF drug / expression of CCN5 on treatment with anti-VEGF drug: bevacizumab 0.25 mg/ml, ranibizumab 0.125 mg/ml, aflibercept 0.5 mg/ml.
Series [2] relates to ARPE-19 cells. Nature of the series: Restoration of already formed TGF-β-induced fibrotic deformation of ARPE-19 cells. To be noted: then agent (restoration); for expression of mesenchymal (α-SMA, vimentin, fibronectin) and epithelial (ZO-1, occludin) marker proteins (Western blotting): TGF-β 2 days, FIGS. 6c, 8b, 12b, 13b. As to the method:
The cultured cells were divided into the following two groups and subjected to drug treatment: one group in which induction of differentiation of retinal pigment epithelial cells into mesenchymal cells was suppressed; and the other group in which retinal pigment epithelial cells that had been induced to differentiate into mesenchymal cells were caused to return to normal retinal pigment epithelial cells. The ARPE-19 cells were grown in serum-free medium for 24 hours. Then, the cells were treated with AdCCN5 at 50 multiplicity of infection (MOI) followed by 10 ng/ml of TGF-β2 (PeproTech Korea, Korea), or treated with TGF-β2 followed by AdCCN5.
For in vitro experiments, the cultured ARPE-19 cells were washed with phosphate buffered saline (PBS), and suspended with a mixed solution of cold RIPA buffer (1% NP-40, 50 mM Tris-HCl [pH 7.4], 150 mM NaCl, and 10 mM NaF) and a protease inhibitor cocktail (Roche, Germany). The cell suspension was subjected to treatment with an ultrasonic generator for 5 minutes at an amplitude of 5% with a cycle of 2 seconds on/1 second off.
Cells that had been grown by being seeded in a 12-well culture plate, each well containing a coverslip, were fixed with 4% formaldehyde and treated with 0.2% Triton X-100 for 10 minutes. The cells were blocked with a diluted solution of 5% bovine serum albumin in PBS, and incubated with anti-ZO-1 and anti-α-SMA antibodies overnight at 4° C. For secondary antibodies, the cells were incubated for 1 hour at room temperature with FITC- or Alexa Fluor 594-conjugated secondary antibodies, TEXAS RED®-conjugated phalloidin (Invitrogen, USA) for f-actin staining, and Hoechst 33342 (Invitrogen, USA) for nuclear staining. The results were observed using an epifluorescence microscope (Zeiss, Germany). For retinal flat-mount experiments, the eyes were enucleated from the mice, and each eye was fixed in 4% formaldehyde for 24 hours. […] Observation was performed under a fluorescence microscope. […]

Series [3] has as its system ARPE-19 cells. Nature of the series: Prevention of TGF-β-induced fibrotic deformation of ARPE-19 cells (microscopy, Western blotting, qPCR, immunofluorescence). The following applies: FIG. 3. As to the method:
A retinal pigment epithelial cell line (ARPE-19; ATCC, USA) was cultured in a 5% CO2 incubator at 37° C. using Dulbecco's modified Eagle's medium and Ham's F12 Nutrient Mixture medium (DMEM/F12; Welgene, Korea), containing 1% antibiotics (Gibco, USA) and 10% fetal bovine serum (FBS; HyClone, USA). The medium was replaced with fresh medium every other day. When the cells were cultured to a certain extent in a culture plate, these cells were subcultured using 0.25% trypsin/0.02% EDTA (Gibco, USA). […]
Cells that had been grown by being seeded in a 12-well culture plate, each well containing a coverslip, were fixed with 4% formaldehyde and treated with 0.2% Triton X-100 for 10 minutes. […] Observation was performed under a fluorescence microscope.
RNA was extracted using TRIZOL™ (Invitrogen, USA) reagent. cDNA was synthesized using a reverse transcription kit (Promega, USA), and real-time polymerase chain reaction was performed using SYBR® green (TAKARA, Japan). The level of RNA was analyzed by analyzing the amplification reaction curve, and this analysis was performed in triplicate or quadruplicate. The relative expression level of genes was quantified by normalization to 18s rRNA. […]
In general terms: Immunoblotting shows a protein as a band on a membrane.

The subject of series [4] is ARPE-19 cells. In words: Bevacizumab-induced fibrotic deformation of ARPE-19 cells and prevention by AdCCN5. To be noted: bevacizumab 0.25 mg/ml. As to the method: Recombinant TGF-β2 was purchased from PeproTech Korea (Korea). ARPE-19 cells were treated with the recombinant TGF-β2 at 10 ng/ml. Recombinant EGF and FGF-2 were purchased from Invitrogen (USA). ARPE-19 cells were treated with 1 mM of EGTA, 10 ng/ml of EGF, and 20 ng/ml of FGF-2.
Use of an anti-VEGF drug that inhibits neovascularization is a widely used method for treating wet age-related macular degeneration. However, this method has a side effect of causing morphological and functional changes in RPE cells. […] The specific experimental process is shown in Example 2, and this experimental process is schematically illustrated in FIG. 11a. The experimental results are illustrated in FIGS. 11b to 11d.

For series [5], the system named is ARPE-19 cells. Nature of the series: Induction of fibrotic deformation of ARPE-19 cells by TGF-β. On the procedure: The mature ARPE-19 cells form a cobblestone-like monolayer and express marker proteins specific for epithelial cells. The cultured ARPE-19 cells were treated with TGF-β at 5 ng/ml or 10 ng/ml for 2 days (FIG. 1a). The results are illustrated in FIGS. 1b to 1d.

[6] abbreviates: TGF-β 5 or 10 ng/ml, 2 days, FIG. 1c.

On to “ranibizumab: anti-VEGF monoclonal antibody fragment (Fab) sold under the brand name LUCENTIS”, for which, in the series on ARPE-19 cells [1] (FIG. 14b), the “expression of CCN2 on treatment with anti-VEGF drug” value is “increased expression of CCN2” and the “expression of CCN5 on treatment with anti-VEGF drug” value was “decreased expression of CCN5”.

For the molecule `Cc1cccc(-c2nn(C(=S)Nc3ccccc3)cc2-c2ccnc3ccccc23)n1` [A83-01, reference compound], the “expression of mesenchymal (α-SMA, vimentin, fibronectin) and epithelial (ZO-1, occludin) marker proteins (Western blotting)” value in the series with ARPE-19 cells [2] is “failed to normalize abnormal changes in expression of mesenchymal marker proteins (α-SMA, vimentin, and fibronectin) and epithelial marker proteins (ZO-1 and occludin)”. Besides, the “TGF-β-induced fibrotic deformation (Western blotting), CCN5 compared with A83-01” value with ARPE-19 cells [3] is on record as “inhibited TGF-β-induced fibrotic deformation of ARPE-19 cells”.

In the case of “bevacizumab: anti-VEGF monoclonal antibody drug sold under the brand name Avastin”, in the series with ARPE-19 cells [4] (FIG. 11b), the “morphology of ARPE-19 cells on treatment with bevacizumab” value is given as “the morphology of the cells changed”. Also, the “expression of CCN5 on treatment with bevacizumab (Western blotting)” value with ARPE-19 cells [4] (FIG. 11c) is “the expression of CCN5 is decreased by bevacizumab”. In the series on ARPE-19 cells [1] (FIG. 14b), the “expression of CCN5 on treatment with anti-VEGF drug” value is “decreased expression of CCN5”.

On to “aflibercept: anti-VEGF drug sold under the brand name EYLEA”, for which, in the series on ARPE-19 cells [1] (FIG. 14b), the “expression of CCN2 on treatment with anti-VEGF drug” value was “increased expression of CCN2” and the “expression of CCN5 on treatment with anti-VEGF drug” value was “decreased expression of CCN5”.

B1: TGF-β: Recombinant TGF-β2 (PeproTech), trigger for fibrotic deformation of RPE cells (protein, UniProt P61812 303-414, looked up)
Transforming growth factor …: ALDAAYCFRNVQDNCCLRPLYIDFKRDLGWKWIHEPKGYNANFCAGACPYLWSSDTQHSRVLSLYNTINPEASASPCCVSQDLEPLTILYYIGKTPKIEQLSNMIVKSCKCS
As to B1, the “α-SMA, f-actin and tight junction after treatment with TGF-β (immunofluorescence staining)” value in the series on ARPE-19 cells [5] (FIG. 1d) is “the expression of α-SMA and f-actin is increased and the formation of tight junction is inhibited”. Besides, the “morphology of ARPE-19 cells after treatment with TGF-β” value in the series on ARPE-19 cells [5] (TGF-β 5 or 10 ng/ml, 2 days, FIG. 1b) is on record as “acquired a fibroblastic morphology”. Moreover, in the series with ARPE-19 cells [5] (setting [6]), the “expression level of CCN5 protein after treatment with TGF-β” value is listed as “significantly decreased the expression level of human-derived CCN5 protein”; the “expression of mesenchymal and epithelial marker proteins after treatment with TGF-β” value was “the expression of the mesenchymal marker proteins, α-SMA, vimentin, fibronectin, and type I collagen, was increased, whereas the expression of the epithelial marker proteins, ZO-1 and occludin, was significantly decreased”.

B2: CCN5 protein: purified human-derived CCN5 protein, extracellular matrix-related protein of the CCN family, also called WISP-2 (protein)
chain: QLCPTPCTCPWPPPRCPLGVPLVLDGCGCCRVCARRLGEPCDQLHVCDASQGLVCQPGAGPGGRGALCLLAEDDSSCEVNGRLYREGETFQPHCSIRCRCEDGGFTCVPLCSEDVRLPSWDCPHPRRVEVLGKCCPEWVCGQGGGLGTQPLPAQGPQFSGLVSSLPPGVPCPEWSTAWGPCSTTCGLGMATRVSNQNRFCRLETQRRLCLSRPCPPSRGRSPQNSAF
modifications: CCN5(except signal peptide, human)
Consider B2, for which the “expression of mesenchymal (α-SMA, vimentin, fibronectin) and epithelial (ZO-1, occludin) marker proteins (Western blotting)” value in the series on ARPE-19 cells [2] is “inhibited increased expression of mesenchymal marker proteins (α-SMA, vimentin, and fibronectin) and restored decreased expression of epithelial marker proteins (ZO-1 and occludin) to a normal level”. Besides, the “tight junction (immunofluorescence staining)” value in the series with ARPE-19 cells [2] (TGF-β, FIGS. 6d, 12c, 13c) is reported as “restore the tight junction, disrupted by TGF-β, to normal”. Also, the “expression of mesenchymal and epithelial marker proteins (Western blotting)” value in the series on ARPE-19 cells [1] (simultaneous treatment with anti-VEGF drugs) was “inhibited increased expression of mesenchymal marker proteins (α-SMA, vimentin, and fibronectin) and decreased expression of epithelial marker proteins (ZO-1 and occludin)”. In addition, the “anti-VEGF drug-induced decrease of CCN5 and increase of CCN2 expression, effect of CCN5 protein” value in the series with ARPE-19 cells [1] (simultaneous treatment with anti-VEGF drugs, FIG. 14b) is on record as “this phenomenon was inhibited by CCN5 protein”. In addition, in the series with ARPE-19 cells [1] (simultaneous treatment with anti-VEGF drugs, FIG. 14c), the “tight junction, expression of α-SMA and formation of f-actin (immunofluorescence staining)” value was “inhibited disruption of tight junction, increased expression of α-SMA, and formation of f-actin”. Also, the “TGF-β-induced fibrotic deformation (Western blotting), CCN5 compared with A83-01” value with ARPE-19 cells [3] was “inhibited TGF-β-induced fibrotic deformation of ARPE-19 cells to the same level as A83-01”.
